Laboratory results published in patent publication US20170190753A1 (LABORATOIRE FRANCAIS DU FRACTIONNEMENT ET DES …, published 2017).

Molecular target: C3 convertase complex (UniProt P01024 23-1663; P00751 260-764)
Test: cell-based or functional assay
Wherever C3 convertase activity % of the control is given: test concentration or dose not given here.

C3 convertase complex, sequence (P01024 23-1663, chain 1 of 2): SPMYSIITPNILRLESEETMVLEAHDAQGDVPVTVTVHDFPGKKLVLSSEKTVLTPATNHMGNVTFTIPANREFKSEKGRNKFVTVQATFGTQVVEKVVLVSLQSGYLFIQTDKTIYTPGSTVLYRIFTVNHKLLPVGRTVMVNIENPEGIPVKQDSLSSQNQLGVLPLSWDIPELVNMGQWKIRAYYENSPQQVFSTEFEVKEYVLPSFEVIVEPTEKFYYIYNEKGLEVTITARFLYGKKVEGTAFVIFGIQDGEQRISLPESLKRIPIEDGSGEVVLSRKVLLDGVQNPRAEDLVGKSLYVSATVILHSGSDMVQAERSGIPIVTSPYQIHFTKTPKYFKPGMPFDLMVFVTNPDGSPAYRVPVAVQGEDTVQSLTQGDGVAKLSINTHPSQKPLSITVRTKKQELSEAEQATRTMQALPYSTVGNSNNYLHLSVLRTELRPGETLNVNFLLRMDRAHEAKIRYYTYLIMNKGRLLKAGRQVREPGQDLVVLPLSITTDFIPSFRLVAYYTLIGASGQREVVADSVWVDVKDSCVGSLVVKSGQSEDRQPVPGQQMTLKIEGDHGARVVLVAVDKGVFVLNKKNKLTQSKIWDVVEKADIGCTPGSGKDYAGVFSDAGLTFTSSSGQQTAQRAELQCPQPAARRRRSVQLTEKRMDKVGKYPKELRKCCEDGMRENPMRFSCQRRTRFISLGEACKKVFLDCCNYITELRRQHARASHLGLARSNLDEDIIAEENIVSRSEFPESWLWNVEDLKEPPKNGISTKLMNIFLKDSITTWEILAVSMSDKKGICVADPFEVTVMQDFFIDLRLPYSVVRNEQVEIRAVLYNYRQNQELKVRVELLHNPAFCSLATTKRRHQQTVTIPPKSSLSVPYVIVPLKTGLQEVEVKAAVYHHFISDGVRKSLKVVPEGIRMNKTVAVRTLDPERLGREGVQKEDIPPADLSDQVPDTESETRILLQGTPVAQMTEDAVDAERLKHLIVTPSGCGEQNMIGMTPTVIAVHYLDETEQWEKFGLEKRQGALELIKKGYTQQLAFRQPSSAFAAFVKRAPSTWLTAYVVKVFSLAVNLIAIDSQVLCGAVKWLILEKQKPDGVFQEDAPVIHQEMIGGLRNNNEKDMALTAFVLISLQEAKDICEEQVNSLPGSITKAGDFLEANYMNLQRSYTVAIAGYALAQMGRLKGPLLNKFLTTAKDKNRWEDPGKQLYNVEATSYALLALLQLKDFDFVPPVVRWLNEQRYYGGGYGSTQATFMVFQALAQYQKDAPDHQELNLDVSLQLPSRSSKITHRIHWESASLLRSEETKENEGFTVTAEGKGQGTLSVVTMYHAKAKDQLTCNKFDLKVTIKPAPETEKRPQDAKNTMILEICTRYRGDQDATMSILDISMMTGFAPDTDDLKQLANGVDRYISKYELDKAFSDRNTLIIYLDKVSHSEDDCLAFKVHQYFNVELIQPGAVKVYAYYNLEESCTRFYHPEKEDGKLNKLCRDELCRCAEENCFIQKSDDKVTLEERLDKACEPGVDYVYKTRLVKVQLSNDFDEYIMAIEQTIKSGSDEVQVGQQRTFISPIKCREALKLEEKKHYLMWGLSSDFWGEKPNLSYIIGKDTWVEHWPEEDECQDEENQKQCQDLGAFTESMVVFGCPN
C3 convertase complex, sequence (P00751 260-764, chain 2 of 2): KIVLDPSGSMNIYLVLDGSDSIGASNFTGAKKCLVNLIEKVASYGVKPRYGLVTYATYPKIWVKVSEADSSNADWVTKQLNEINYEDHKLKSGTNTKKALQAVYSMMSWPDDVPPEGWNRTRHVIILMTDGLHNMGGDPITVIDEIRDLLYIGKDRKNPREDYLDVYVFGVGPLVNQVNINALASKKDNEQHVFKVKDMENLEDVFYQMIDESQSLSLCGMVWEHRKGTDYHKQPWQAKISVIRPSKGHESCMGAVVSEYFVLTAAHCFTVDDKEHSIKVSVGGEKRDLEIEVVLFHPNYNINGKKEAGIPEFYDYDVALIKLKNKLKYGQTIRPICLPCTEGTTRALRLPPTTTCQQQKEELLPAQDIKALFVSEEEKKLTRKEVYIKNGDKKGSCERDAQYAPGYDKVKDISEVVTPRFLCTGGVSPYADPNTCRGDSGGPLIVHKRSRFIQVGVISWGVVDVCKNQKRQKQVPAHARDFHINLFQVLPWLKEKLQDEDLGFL

Row | C3 convertase activity % of the control | C3 convertase activity IC50 | Binder
1 | 6 % of the control | 1.17 µg/mL | pCEP4-1NT10-15CT20 (other) EDCNELPPRRNTEILTGSWSDQTYPEGTQAIYKCRPGYRSLGNVIMVCRKGEWVALNPLRKCQKRPCGHPGDTPFGTFTLTGGNVFEYGVKAVYTCNEGYQLLGEINYRECDTDGWTNDIPICEVVKCLPVTAPENGKIVSSAMEPDREYHFGQAVRFVCNSGYKIEGDEEMHCSDDGFWSKEKPKCVEISCKSPDVINGSPISQKIIYKENERFQYKCNMGYEYSERGDAVCTESGWRPLPSCEEKSCDNPYIPNGDYSPLRIKHRTGDEITYQCRNGFYPATRGNTAKCTSTGWIPAPRCTLKPCDYPDIKHGGLYHENMRRPYFPVAVGKYYSYYCDEHFETPSGSYWDHIHCTQDGWSPAVPCLRKCYFPYLENGYNQNHGRKFVQGKSIDVACHPGYALPKAQTTVTCMENGWSPTPRCIRVKTCSKSSIDIENGFISESQYTYALKEKAKYQCKLGYVTADGETSGSITCGKDGWSAQPTCIKSCDIPVFMNARTKNDFTWFKLNDTLDYECHDGYESNTGSTTGSIVCGYNGWSDLPICYERECELPKIDVHLVPDRKKDQYKVGEVLKFSCKPGFTIVGPNSVQCYHFGLSPDLPICKEQVQSGASGCSQPPQIEHGTINSSRSSQESYAHGTKLSYTCEGGFRISEENETTCYMGKWSSPPQCEGLPCKSPPEISHGVVAHMSDSYQYGEEVTYKCFEGFGIDGPAIAKCLGEKWSHPPSCIKTDCLSLPSFENAIPMGEKKDVYKAGEQVTYTCATYYKMDGASNVTCINSRWTGRPTCRDTSCVNPPTVQNAYIVSRQMSKYPSGERVRYQCRSPYEMFGDEEVMCLNGNWTEPPQCKDSTGKCGPPPPIDNGDITSFPLSVYAPASSVEYQCQNLYQLEGNKRITCRNGQWSEPPKCLHPCVISREIMENYNIALRWTAKQKLYSRTGESVEFVCKRGYRLSSRSHTLRTTCWDGKLEYPTCAKRGGSGHHHHHH
2 | 7 % of the control | 1.93 µg/mL | pCEP4-1NT7-13CT20 (other) EDCNELPPRRNTEILTGSWSDQTYPEGTQAIYKCRPGYRSLGNVIMVCRKGEWVALNPLRKCQKRPCGHPGDTPFGTFTLTGGNVFEYGVKAVYTCNEGYQLLGEINYRECDTDGWTNDIPICEVVKCLPVTAPENGKIVSSAMEPDREYHFGQAVRFVCNSGYKIEGDEEMHCSDDGFWSKEKPKCVEISCKSPDVINGSPISQKIIYKENERFQYKCNMGYEYSERGDAVCTESGWRPLPSCEEKSCDNPYIPNGDYSPLRIKHRTGDEITYQCRNGFYPATRGNTAKCTSTGWIPAPRCTLKPCDYPDIKHGGLYHENMRRPYFPVAVGKYYSYYCDEHFETPSGSYWDHIHCTQDGWSPAVPCLRKCYFPYLENGYNQNYGRKFVQGKSIDVACHPGYALPKAQTTVTCMENGWSPTPRCIRVKTGASGCKSSNLIILEEHLKNKKEFDHNSNIRYRCRGKEGWIHTVCINGRWDPEVNCSMAQIQLCPPPPQIPNSHNMTTTLNYRDGEKVSVLCQENYLIQEGEEITCKDGRWQSIPLCVEKIPCSQPPQIEHGTINSSRSSQESYAHGTKLSYTCEGGFRISEENETTCYMGKWSSPPQCEGLPCKSPPEISHGVVAHMSDSYQYGEEVTYKCFEGFGIDGPAIAKCLGEKWSHPPSCIKTDCLSLPSFENAIPMGEKKDVYKAGEQVTYTCATYYKMDGASNVTCINSRWTGRPTCRDTSCVNPPTVQNAYIVSRQMSKYPSGERVRYQCRSPYEMFGDEEVMCLNGNWTEPPQCKDSTGKCGPPPPIDNGDITSFPLSVYAPASSVEYQCQNLYQLEGNKRITCRNGQWSEPPKCLHPCVISREIMENYNIALRWTAKQKLYSRTGESVEFVCKRGYRLSSRSHTLRTTCWDGKLEYPTCAKRGGSGHHHHHH
3 | 107 % of the control | 0.338 µg/mL | pCEP4-1NT8-10CT20 (other) EDCNELPPRRNTEILTGSWSDQTYPEGTQAIYKCRPGYRSLGNVIMVCRKGEWVALNPLRKCQKRPCGHPGDTPFGTFTLTGGNVFEYGVKAVYTCNEGYQLLGEINYRECDTDGWTNDIPICEVVKCLPVTAPENGKIVSSAMEPDREYHFGQAVRFVCNSGYKIEGDEEMHCSDDGFWSKEKPKCVEISCKSPDVINGSPISQKIIYKENERFQYKCNMGYEYSERGDAVCTESGWRPLPSCEEKSCDNPYIPNGDYSPLRIKHRTGDEITYQCRNGFYPATRGNTAKCTSTGWIPAPRCTLKPCDYPDIKHGGLYHENMRRPYFPVAVGKYYSYYCDEHFETPSGSYWDHIHCTQDGWSPAVPCLRKCYFPYLENGYNQNYGRKFVQGKSIDVACHPGYALPKAQTTVTCMENGWSPTPRCIRVKTCSKSSIDIENGFISESQYTYALKEKAKYQCKLGYVTADGETSGSITCGKDGWSAQPTCIKSGASGCELPKIDVHLVPDRKKDQYKVGEVLKFSCKPGFTIVGPNSVQCYHFGLSPDLPICKEQVQSCGPPPELLNGNVKEKTKEEYGHSEVVEYYCNPRFLMKGPNKIQCVDGEWTTLPVCIVEESTCGDIPELEHGWAQLSSPPYYYGDSVEFNCSESFTMIGHRSITCIHGVWTQLPQCVAIDKLKKCKSSNLIILEEHLKNKKEFDHNSNIRYRCRGKEGWIHTVCINGRWDPEVNCSMAQIQLCPPPPQIPNSHNMTTTLNYRDGEKVSVLCQENYLIQEGEEITCKDGRWQSIPLCVEKIPCSQPPQIEHGTINSSRSSQESYAHGTKLSYTCEGGFRISEENETTCYMGKWSSPPQCEGLPCKSPPEISHGVVAHMSDSYQYGEEVTYKCFEGFGIDGPAIAKCLGEKWSHPPSCIKTDCLSLPSFENAIPMGEKKDVYKAGEQVTYTCATYYKMDGASNVTCINSRWTGRPTCRDTSCVNPPTVQNAYIVSRQMSKYPSGERVRYQCRSPYEMFGDEEVMCLNGNWTEPPQCKDSTGKCGPPPPIDNGDITSFPLSVYAPASSVEYQCQNLYQLEGNKRITCRNGQWSEPPKCLHPCVISREIMENYNIALRWTAKQKLYSRTGESVEFVCKRGYRLSSRSHTLRTTCWDGKLEYPTCAKRGGSGHHHHHH
4 | 5 % of the control | 1.78 µg/mL | pCEP4-1NT11-19CT20 (other) EDCNELPPRRNTEILTGSWSDQTYPEGTQAIYKCRPGYRSLGNVIMVCRKGEWVALNPLRKCQKRPCGHPGDTPFGTFTLTGGNVFEYGVKAVYTCNEGYQLLGEINYRECDTDGWTNDIPICEVVKCLPVTAPENGKIVSSAMEPDREYHFGQAVRFVCNSGYKIEGDEEMHCSDDGFWSKEKPKCVEISCKSPDVINGSPISQKIIYKENERFQYKCNMGYEYSERGDAVCTESGWRPLPSCEEKSCDNPYIPNGDYSPLRIKHRTGDEITYQCRNGFYPATRGNTAKCTSTGWIPAPRCTLKPCDYPDIKHGGLYHENMRRPYFPVAVGKYYSYYCDEHFETPSGSYWDHIHCTQDGWSPAVPCLRKCYFPYLENGYNQNHGRKFVQGKSIDVACHPGYALPKAQTTVTCMENGWSPTPRCIRVKTCSKSSIDIENGFISESQYTYALKEKAKYQCKLGYVTADGETSGSITCGKDGWSAQPTCIKSCDIPVFMNARTKNDFTWFKLNDTLDYECHDGYESNTGSTTGSIVCGYNGWSDLPICYERECELPKIDVHLVPDRKKDQYKVGEVLKFSCKPGFTIVGPNSVQCYHFGLSPDLPICKEQVQSCGPPPELLNGNVKEKTKEEYGHSEVVEYYCNPRFLMKGPNKIQCVDGEWTTLPVCIVEESTGASGCGPPPPIDNGDITSFPLSVYAPASSVEYQCQNLYQLEGNKRITCRNGQWSEPPKCLHPCVISREIMENYNIALRWTAKQKLYSRTGESVEFVCKRGYRLSSRSHTLRTTCWDGKLEYPTCAKRGGSGHHHHHH
5 | 7 % of the control | 2.04 µg/mL | pCEP4-1NT7-12CT20 (other) EDCNELPPRRNTEILTGSWSDQTYPEGTQAIYKCRPGYRSLGNVIMVCRKGEWVALNPLRKCQKRPCGHPGDTPFGTFTLTGGNVFEYGVKAVYTCNEGYQLLGEINYRECDTDGWTNDIPICEVVKCLPVTAPENGKIVSSAMEPDREYHFGQAVRFVCNSGYKIEGDEEMHCSDDGFWSKEKPKCVEISCKSPDVINGSPISQKIIYKENERFQYKCNMGYEYSERGDAVCTESGWRPLPSCEEKSCDNPYIPNGDYSPLRIKHRTGDEITYQCRNGFYPATRGNTAKCTSTGWIPAPRCTLKPCDYPDIKHGGLYHENMRRPYFPVAVGKYYSYYCDEHFETPSGSYWDHIHCTQDGWSPAVPCLRKCYFPYLENGYNQNYGRKFVQGKSIDVACHPGYALPKAQTTVTCMENGWSPTPRCIRVKTGASGCGDIPELEHGWAQLSSPPYYYGDSVEFNCSESFTMIGHRSITCIHGVWTQLPQCVAIDKLKKCKSSNLIILEEHLKNKKEFDHNSNIRYRCRGKEGWIHTVCINGRWDPEVNCSMAQIQLCPPPPQIPNSHNMTTTLNYRDGEKVSVLCQENYLIQEGEEITCKDGRWQSIPLCVEKIPCSQPPQIEHGTINSSRSSQESYAHGTKLSYTCEGGFRISEENETTCYMGKWSSPPQCEGLPCKSPPEISHGVVAHMSDSYQYGEEVTYKCFEGFGIDGPAIAKCLGEKWSHPPSCIKTDCLSLPSFENAIPMGEKKDVYKAGEQVTYTCATYYKMDGASNVTCINSRWTGRPTCRDTSCVNPPTVQNAYIVSRQMSKYPSGERVRYQCRSPYEMFGDEEVMCLNGNWTEPPQCKDSTGKCGPPPPIDNGDITSFPLSVYAPASSVEYQCQNLYQLEGNKRITCRNGQWSEPPKCLHPCVISREIMENYNIALRWTAKQKLYSRTGESVEFVCKRGYRLSSRSHTLRTTCWDGKLEYPTCAKRGGSGHHHHHH
6 | 6 % of the control | 1.99 µg/mL | pCEP4-1NT11-14CT20 (other) EDCNELPPRRNTEILTGSWSDQTYPEGTQAIYKCRPGYRSLGNVIMVCRKGEWVALNPLRKCQKRPCGHPGDTPFGTFTLTGGNVFEYGVKAVYTCNEGYQLLGEINYRECDTDGWTNDIPICEVVKCLPVTAPENGKIVSSAMEPDREYHFGQAVRFVCNSGYKIEGDEEMHCSDDGFWSKEKPKCVEISCKSPDVINGSPISQKIIYKENERFQYKCNMGYEYSERGDAVCTESGWRPLPSCEEKSCDNPYIPNGDYSPLRIKHRTGDEITYQCRNGFYPATRGNTAKCTSTGWIPAPRCTLKPCDYPDIKHGGLYHENMRRPYFPVAVGKYYSYYCDEHFETPSGSYWDHIHCTQDGWSPAVPCLRKCYFPYLENGYNQNHGRKFVQGKSIDVACHPGYALPKAQTTVTCMENGWSPTPRCIRVKTCSKSSIDIENGFISESQYTYALKEKAKYQCKLGYVTADGETSGSITCGKDGWSAQPTCIKSCDIPVFMNARTKNDFTWFKLNDTLDYECHDGYESNTGSTTGSIVCGYNGWSDLPICYERECELPKIDVHLVPDRKKDQYKVGEVLKFSCKPGFTIVGPNSVQCYHFGLSPDLPICKEQVQSCGPPPELLNGNVKEKTKEEYGHSEVVEYYCNPRFLMKGPNKIQCVDGEWTTLPVCIVEESTGASGCPPPPQIPNSHNMTTTLNYRDGEKVSVLCQENYLIQEGEEITCKDGRWQSIPLCVEKIPCSQPPQIEHGTINSSRSSQESYAHGTKLSYTCEGGFRISEENETTCYMGKWSSPPQCEGLPCKSPPEISHGVVAHMSDSYQYGEEVTYKCFEGFGIDGPAIAKCLGEKWSHPPSCIKTDCLSLPSFENAIPMGEKKDVYKAGEQVTYTCATYYKMDGASNVTCINSRWTGRPTCRDTSCVNPPTVQNAYIVSRQMSKYPSGERVRYQCRSPYEMFGDEEVMCLNGNWTEPPQCKDSTGKCGPPPPIDNGDITSFPLSVYAPASSVEYQCQNLYQLEGNKRITCRNGQWSEPPKCLHPCVISREIMENYNIALRWTAKQKLYSRTGESVEFVCKRGYRLSSRSHTLRTTCWDGKLEYPTCAKRGGSGHHHHHH
